For orientation: Kd means the constant that tells how readily two partners part at equilibrium.

The target of the test is Recombinant TRAF-USP7 (residues 55 to 208) (UniProt Q93009 55-208). Nature of the test: SPR.
Sequence of Recombinant TRAF-USP7 (residues 55 to 208) (Q93009 55-208): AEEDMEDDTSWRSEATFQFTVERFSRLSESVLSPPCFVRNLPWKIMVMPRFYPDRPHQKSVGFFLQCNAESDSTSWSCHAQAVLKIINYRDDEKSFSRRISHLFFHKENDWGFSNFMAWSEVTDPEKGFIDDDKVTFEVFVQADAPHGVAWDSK

B1: Recombinant BTB-Keap1 (residues 48 to 180) (domain or fragment, UniProt Q14145 48-180, looked up)
chain: GNRTFSYTLEDHTKQAFGIMNELRLSQQLCDVTLQVKYQDAPAAQFMAHKVVLASSSPVFKAMFTNGLREQGMEVVSIEGIHPKVMERLIEFAYTASISMGEKCVLHVMNGAVMYQIDSVVRACSDFLVQQLD
For the molecule B1, the Kd was found to be 18 nM.

The record behind these values is paper PMC9365288 (Science Advances, 2022).
